Measurements reported in article PMC8641752.

Assays:
Assay in all cases: co-IP; substrate (Hmg2-GFP, Ste6*-GFP, CPY*-GFP with GFP-Trap; Pdr5*-Myc with Myc Trap) precipitated from yeast microsomes solubilised in Tween IP buffer (500 mM NaCl, 50 mM Tris pH 7.5, 10 mM EDTA, 1.5% Tween-20), overnight 4°C; blots with anti-HA, anti-Cdc48
Hmg2-GFP (S. cerevisiae) = Hmg2-GFP (S. cerevisiae) (UniProt P12684)
[1] = molecular target: Ste6*-GFP (S. cerevisiae) (UniProt P12866)
[2] = molecular target: Pdr5*-Myc (S. cerevisiae) (UniProt P33302)
Chain of UniProt P33302 (P33302 whole entry): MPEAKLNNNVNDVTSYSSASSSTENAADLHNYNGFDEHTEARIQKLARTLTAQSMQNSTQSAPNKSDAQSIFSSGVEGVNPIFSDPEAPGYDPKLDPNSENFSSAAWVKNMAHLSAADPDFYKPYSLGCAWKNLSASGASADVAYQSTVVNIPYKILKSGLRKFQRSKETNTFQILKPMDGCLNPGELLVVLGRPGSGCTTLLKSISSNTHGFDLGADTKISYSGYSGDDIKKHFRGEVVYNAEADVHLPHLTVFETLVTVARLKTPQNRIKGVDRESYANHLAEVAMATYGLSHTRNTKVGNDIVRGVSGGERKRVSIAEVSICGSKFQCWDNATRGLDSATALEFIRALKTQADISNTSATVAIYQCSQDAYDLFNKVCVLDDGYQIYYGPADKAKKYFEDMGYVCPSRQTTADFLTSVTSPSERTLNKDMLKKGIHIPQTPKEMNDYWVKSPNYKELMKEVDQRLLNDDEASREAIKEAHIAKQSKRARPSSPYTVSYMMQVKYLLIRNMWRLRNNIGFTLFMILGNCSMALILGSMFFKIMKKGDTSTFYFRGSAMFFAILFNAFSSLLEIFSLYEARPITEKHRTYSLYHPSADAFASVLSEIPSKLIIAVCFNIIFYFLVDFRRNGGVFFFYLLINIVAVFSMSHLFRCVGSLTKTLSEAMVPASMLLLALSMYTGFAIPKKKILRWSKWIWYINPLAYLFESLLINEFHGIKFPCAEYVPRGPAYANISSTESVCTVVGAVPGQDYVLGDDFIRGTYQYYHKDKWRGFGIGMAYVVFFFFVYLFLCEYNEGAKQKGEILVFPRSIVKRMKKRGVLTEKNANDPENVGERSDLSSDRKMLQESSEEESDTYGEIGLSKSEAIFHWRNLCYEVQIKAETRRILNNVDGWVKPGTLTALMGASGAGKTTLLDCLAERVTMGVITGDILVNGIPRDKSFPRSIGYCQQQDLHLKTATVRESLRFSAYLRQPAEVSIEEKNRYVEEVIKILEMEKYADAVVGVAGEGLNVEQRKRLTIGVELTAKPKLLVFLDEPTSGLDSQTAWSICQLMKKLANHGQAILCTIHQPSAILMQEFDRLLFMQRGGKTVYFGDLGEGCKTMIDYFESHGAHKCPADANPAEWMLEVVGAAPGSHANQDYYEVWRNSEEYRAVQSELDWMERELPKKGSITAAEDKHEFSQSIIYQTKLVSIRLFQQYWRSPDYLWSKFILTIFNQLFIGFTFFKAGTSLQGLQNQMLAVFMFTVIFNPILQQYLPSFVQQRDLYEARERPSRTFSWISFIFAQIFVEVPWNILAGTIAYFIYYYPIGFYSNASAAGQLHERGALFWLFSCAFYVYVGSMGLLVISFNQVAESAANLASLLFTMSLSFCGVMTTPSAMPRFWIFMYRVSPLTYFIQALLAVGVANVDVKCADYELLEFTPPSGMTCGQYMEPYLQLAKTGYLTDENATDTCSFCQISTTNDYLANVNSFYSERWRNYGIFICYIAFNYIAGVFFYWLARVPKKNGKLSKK

Measured: fraction of Dfm1-5Ashp bound compared with wild-type Dfm1

Chain of Dfm1-5Ashp (Q12743 whole entry): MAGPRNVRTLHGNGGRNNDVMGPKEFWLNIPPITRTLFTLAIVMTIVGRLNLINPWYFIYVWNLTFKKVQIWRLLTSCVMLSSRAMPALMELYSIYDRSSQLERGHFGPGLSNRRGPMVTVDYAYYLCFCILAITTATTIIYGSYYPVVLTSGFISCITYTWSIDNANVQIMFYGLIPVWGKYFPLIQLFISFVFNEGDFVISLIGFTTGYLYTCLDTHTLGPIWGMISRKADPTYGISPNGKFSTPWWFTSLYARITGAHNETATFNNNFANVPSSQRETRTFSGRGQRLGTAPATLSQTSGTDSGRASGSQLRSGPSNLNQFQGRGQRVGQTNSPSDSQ
Chain of UniProt P12866 (P12866 whole entry): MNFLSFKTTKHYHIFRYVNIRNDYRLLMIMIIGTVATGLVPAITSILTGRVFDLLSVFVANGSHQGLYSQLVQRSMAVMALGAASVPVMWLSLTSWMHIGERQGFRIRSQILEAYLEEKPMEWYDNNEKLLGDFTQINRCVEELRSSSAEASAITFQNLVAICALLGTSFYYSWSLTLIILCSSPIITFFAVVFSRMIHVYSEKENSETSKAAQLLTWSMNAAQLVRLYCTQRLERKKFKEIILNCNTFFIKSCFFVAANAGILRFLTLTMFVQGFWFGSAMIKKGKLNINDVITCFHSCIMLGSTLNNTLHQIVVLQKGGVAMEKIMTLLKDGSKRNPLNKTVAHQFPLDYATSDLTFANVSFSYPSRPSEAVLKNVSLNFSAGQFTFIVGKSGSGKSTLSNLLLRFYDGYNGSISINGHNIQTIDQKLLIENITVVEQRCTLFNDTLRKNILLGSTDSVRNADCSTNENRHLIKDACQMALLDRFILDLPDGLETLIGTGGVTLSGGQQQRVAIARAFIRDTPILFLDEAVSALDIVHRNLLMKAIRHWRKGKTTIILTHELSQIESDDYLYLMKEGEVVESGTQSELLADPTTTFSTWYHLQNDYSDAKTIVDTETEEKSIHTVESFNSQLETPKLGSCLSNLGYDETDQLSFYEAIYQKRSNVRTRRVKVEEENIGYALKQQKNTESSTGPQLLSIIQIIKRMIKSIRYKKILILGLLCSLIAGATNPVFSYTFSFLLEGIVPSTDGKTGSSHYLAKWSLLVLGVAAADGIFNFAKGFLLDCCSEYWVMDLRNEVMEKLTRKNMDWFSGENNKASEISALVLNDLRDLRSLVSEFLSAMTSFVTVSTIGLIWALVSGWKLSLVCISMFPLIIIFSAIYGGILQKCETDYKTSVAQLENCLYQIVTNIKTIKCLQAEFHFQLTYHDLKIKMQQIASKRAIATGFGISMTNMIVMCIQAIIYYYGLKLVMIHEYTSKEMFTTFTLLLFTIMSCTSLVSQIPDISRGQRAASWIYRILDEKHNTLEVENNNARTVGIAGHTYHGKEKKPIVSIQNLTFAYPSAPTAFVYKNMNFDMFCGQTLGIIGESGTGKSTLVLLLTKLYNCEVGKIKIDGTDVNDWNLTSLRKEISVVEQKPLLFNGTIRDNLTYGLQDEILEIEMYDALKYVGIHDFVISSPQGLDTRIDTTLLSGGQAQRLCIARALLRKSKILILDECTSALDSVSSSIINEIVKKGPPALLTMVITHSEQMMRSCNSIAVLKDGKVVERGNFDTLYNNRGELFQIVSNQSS
Chain of UniProt P12684 (P12684 whole entry): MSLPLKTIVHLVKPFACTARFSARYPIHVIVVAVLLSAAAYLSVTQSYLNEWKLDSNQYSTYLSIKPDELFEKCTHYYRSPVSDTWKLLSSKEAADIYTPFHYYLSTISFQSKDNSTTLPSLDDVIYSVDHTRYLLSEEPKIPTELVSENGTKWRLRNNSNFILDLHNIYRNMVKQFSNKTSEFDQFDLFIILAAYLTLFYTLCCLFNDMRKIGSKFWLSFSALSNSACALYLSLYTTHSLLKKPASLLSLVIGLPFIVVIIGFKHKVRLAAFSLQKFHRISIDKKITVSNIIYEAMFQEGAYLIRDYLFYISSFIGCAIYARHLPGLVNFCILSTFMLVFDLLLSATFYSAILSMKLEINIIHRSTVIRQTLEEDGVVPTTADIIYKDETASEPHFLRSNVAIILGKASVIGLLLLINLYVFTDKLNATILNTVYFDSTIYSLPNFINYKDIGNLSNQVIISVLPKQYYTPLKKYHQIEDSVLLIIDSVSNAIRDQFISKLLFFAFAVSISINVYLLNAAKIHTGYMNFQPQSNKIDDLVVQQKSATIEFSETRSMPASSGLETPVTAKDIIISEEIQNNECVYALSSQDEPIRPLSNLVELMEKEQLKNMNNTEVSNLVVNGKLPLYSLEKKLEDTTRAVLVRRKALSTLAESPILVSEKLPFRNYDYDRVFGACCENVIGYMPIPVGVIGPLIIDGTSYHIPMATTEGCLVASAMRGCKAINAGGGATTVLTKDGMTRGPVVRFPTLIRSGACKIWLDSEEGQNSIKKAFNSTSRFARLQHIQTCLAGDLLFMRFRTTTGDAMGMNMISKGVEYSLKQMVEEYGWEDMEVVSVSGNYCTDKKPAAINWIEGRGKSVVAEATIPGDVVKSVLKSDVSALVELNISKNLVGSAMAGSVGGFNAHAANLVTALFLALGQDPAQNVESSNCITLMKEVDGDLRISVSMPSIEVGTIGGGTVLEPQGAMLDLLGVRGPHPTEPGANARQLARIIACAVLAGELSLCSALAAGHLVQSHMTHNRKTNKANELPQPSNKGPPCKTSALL

Dfm1-5Ashp (from UniProt Q12743 1-341) (natural protein)
< 5%: all assays above
